Experimental data published in the MegaScale stability set (Tsuboyama et al. 2023).

B1: r16_88_TrROS_Hall (parent)
chain: EVIELKIKFKTPEQREKLKEIAKKLNAEVVEEKDGEVIIRFKTPEQAERALKEAEKLGAEVEL

Variants of: B1
Test: folding stability dG (cDNA display proteolysis); higher = more stable
Settings: PBS, room temperature

Variant | folding stability dG [kcal/mol]
EVIELKIKFKTPEQREKLKEIAKKLNAEVVEEKDGEVIIRFKTPEQAERALKEAEHLGAEVEL | 4.33
EVIELKIKFKTPEQREKLKEIAKKLNAEVVEEKDGEVIIRFKTPEQAERALKEAEPLGAEVEL | 4.5
EVIKLKIKFKTPEQREKLKEIAKKLNAEVVEEKDGEVIIRFKTPEQAERALKEAEKLGAEVEL | 4.51
EVIELKIKFKTPEQREKMKEIAKKLNAEVVEEKDGEVIIRFKTPEQAERALKEAEKLGAEVEL | 4.28
EVIELKIKFKTPEQREKCKEIAKKLNAEVVEEKDGEVIIRFKTPEQAERALKEAEKLGAEVEL | 4.11
EVIELKIKFKTPEQREKLKEIAKKLNAEVVEEKDGEVIIRFKTPEQAERALKEANKLGAEVEL | 4.42
EVIELKIKFKTPEQREKLKEIAKKLNAEVVEEKDGEVIIRFKTPEQAERALKEAPKLGAEVEL | 3.67
EVIELKIKFKTPEQREKLKEIAKKLNAEVVEEKDGEVIIVFKTPEQAERALKEAEKLGAEVEL | 4.64
EVIELKIKFKTPEQRHKLKEIAKKLNAEVVEEKDGEVIIRFKTPEQAERALKEAEKLGAEVEL | 4.59
EVIELKIKFKTPEQREKLKEIAKKLNAEVVEEKDGEVFIRFKTPEQAERALKEAEKLGAEVEL | 4.96
EVIELKIKFKTPECREKLKEIAKKLNAEVVEEKDGEVIIRFKTPEQAERALKEAEKLGAEVEL | 4.28
EVIELKIKFKTPEQREKLKEIAKKLNAEVVEEKDGEVIIRFKTPEQAERALKYAEKLGAEVEL | 4.3
EVIECKIKFKTPEQREKLKEIAKKLNAEVVEEKDGEVIIRFKTPEQAERALKEAEKLGAEVEL | 4.29
EVIELKIKFKTPEQREKLKEIAKKLNAEVVEEKDGEVIQRFKTPEQAERALKEAEKLGAEVEL | 3.99
EVIELKIKFKTPEQREKLKEIAKKLNAEVVEEKDGEVIIRYKTPEQAERALKEAEKLGAEVEL | 4.23
EVIELKIKFKTPEQREKLKEIAKKLNAEVVEEKDGEVIIRRKTPEQAERALKEAEKLGAEVEL | 1.04
EVIELKIKFKTPEQREKLKEIAKKLNAEVVEEKDGEVIIRQKTPEQAERALKEAEKLGAEVEL | 2.23
EVIELKIKFKTPEQREKLKEIAKKLNAEVVEEKDGEVIIRFKTPEQAERALKEAEKLGAEVRL | 3.94
EVIELKIKFKTPEQREKLKEIAKKLNAEVVEEKDGEVIIRFKTPEQAERARKEAEKLGAEVEL | 4.61
EVIELKIKFKTPEQREKLKEIAKKLNAEVVEEEDGEVIIRFKTPEQAERALKEAEKLGAEVEL | 3.99
EVIELWIKFKTPEQREKLKEIAKKLNAEVVEEKDGEVIIRFKTPEQAERALKEAEKLGAEVEL | 4.94
EVIELHIKFKTPEQREKLKEIAKKLNAEVVEEKDGEVIIRFKTPEQAERALKEAEKLGAEVEL | 4.48

Variant | folding stability dG [kcal/mol]
EVIELKIKYKTPEQREKLKEIAKKLNAEVVEEKDGEVIIRFKTPEQAERALKEAEKLGAEVEL | 4.33
EVIELKIKLKTPEQREKLKEIAKKLNAEVVEEKDGEVIIRFKTPEQAERALKEAEKLGAEVEL | 4
EVIELKIKNKTPEQREKLKEIAKKLNAEVVEEKDGEVIIRFKTPEQAERALKEAEKLGAEVEL | 3.54
EVIELKIKFCTPEQREKLKEIAKKLNAEVVEEKDGEVIIRFKTPEQAERALKEAEKLGAEVEL | 4.2
EVIELKIKFHTPEQREKLKEIAKKLNAEVVEEKDGEVIIRFKTPEQAERALKEAEKLGAEVEL | 4.28
EVIELKIKFKTPEQREILKEIAKKLNAEVVEEKDGEVIIRFKTPEQAERALKEAEKLGAEVEL | 4.18
EVIELKIKFKTPEQRELLKEIAKKLNAEVVEEKDGEVIIRFKTPEQAERALKEAEKLGAEVEL | 4.53
EVIELKIKFKTPKQREKLKEIAKKLNAEVVEEKDGEVIIRFKTPEQAERALKEAEKLGAEVEL | 4.51
EVIELKIKFKTPYQREKLKEIAKKLNAEVVEEKDGEVIIRFKTPEQAERALKEAEKLGAEVEL | 4.76
EVIELKIKFKTPDQREKLKEIAKKLNAEVVEEKDGEVIIRFKTPEQAERALKEAEKLGAEVEL | 4.3
EVIELKIKFKTPQQREKLKEIAKKLNAEVVEEKDGEVIIRFKTPEQAERALKEAEKLGAEVEL | 4.57
EVIELKIKFKTPEQREKLKEIAKKLNAEVVEEKDGVVIIRFKTPEQAERALKEAEKLGAEVEL | 4.36
EVIELKIKFKTPEQREKLKEIAKKLNAEVVEEKDGLVIIRFKTPEQAERALKEAEKLGAEVEL | 4.61
EVIELKIKFKTPEQREKLKEIAKKLNAEVVEEKDGYVIIRFKTPEQAERALKEAEKLGAEVEL | 4.89
EVIELKIKFKTTEQREKLKEIAKKLNAEVVEEKDGEVIIRFKTPEQAERALKEAEKLGAEVEL | 4.57
EVIELKIKFKTMEQREKLKEIAKKLNAEVVEEKDGEVIIRFKTPEQAERALKEAEKLGAEVEL | 4.53
EVIELKIKFKTPEQREKLKEIAKKLNAEVVEEKDGEVIIRFKTPEQAERALAEAEKLGAEVEL | 4.52
EVIELKIKFKTPEQREKLKEIAKKLNAEVVEEKDGEVIIRFKTPEVAERALKEAEKLGAEVEL | 4.38
EVIELKIKFKTPEQREKLKEIAKKLNAEVVEEKDGEVIIRFKTPEGAERALKEAEKLGAEVEL | 4.48
EVIELKIKFKTPEQREKLKEIAKKLNAEVVEEKDGEVIIRFKTPEEAERALKEAEKLGAEVEL | 4.18
EVIELKIKFKTPEQREKLKEIAKKLNAEVVEEKDGEVIIRFKTPEQAERALKEAEKLGAEWEL | 3.96
EVIELKIKFKTPEQREKLKEIAKKLNAEVVEEKDGEVIIRFKTPEQAERALKEAEKLGAEMEL | 3.99

Variant | folding stability dG [kcal/mol]
EVIELKIKFKTPEQREKLKEIAKKLNAEVVEEKDGEVIIRFKTPEQAERALKEAEKLGAECEL | 4.16
EVIELKIKFKTPEQREKLDEIAKKLNAEVVEEKDGEVIIRFKTPEQAERALKEAEKLGAEVEL | 4.31
EVIELKIKFKTPEQREKLAEIAKKLNAEVVEEKDGEVIIRFKTPEQAERALKEAEKLGAEVEL | 4.18
EVIELKIKFKTPEQREKLKEIAKKLNAEVVEEKDGEVIIRFKTPEQAERALKEAEKKGAEVEL | 3.5
EVIELKIKFKTPEQREKLKEIAKKLNAHVVEEKDGEVIIRFKTPEQAERALKEAEKLGAEVEL | 4.43
EVIELKIKFKTPEQREKLKEIAKKLWAEVVEEKDGEVIIRFKTPEQAERALKEAEKLGAEVEL | 4.36
EVIELKIKFKTPEQREKLKEIAKKLTAEVVEEKDGEVIIRFKTPEQAERALKEAEKLGAEVEL | 4.41
EVIELKIKFKTPEQREKLKEIAKKLNAEVVEEKDGEVIIRFKTPEQAERALKEAEKLTAEVEL | 4.26
EVIELKIKFKTPEQREKLKEIAKKLNAEVVEEKDGEVIIRFKTPEQYERALKEAEKLGAEVEL | 4.79
EVIELKIKFKTPEQREKLKEIAKKLNAEVVEEKDGEVIIRFKTPEQPERALKEAEKLGAEVEL | 3.25
EVIELKIKFKIPEQREKLKEIAKKLNAEVVEEKDGEVIIRFKTPEQAERALKEAEKLGAEVEL | 4.59
EVIELKIKFKTPEQREKLKEIAKKLNAEVVEEKDGEVIIRFKTYEQAERALKEAEKLGAEVEL | 4.39
EVIELKIKFKTPEQREKLKEIAKKLNHEVVEEKDGEVIIRFKTPEQAERALKEAEKLGAEVEL | 4.04
EVIELKIKFKTPEQREKLKEFAKKLNAEVVEEKDGEVIIRFKTPEQAERALKEAEKLGAEVEL | 4.76
EVIELKIKFKTPEQREKLKEYAKKLNAEVVEEKDGEVIIRFKTPEQAERALKEAEKLGAEVEL | 4.78
EVIELKIKFKTPEQREKLKEIAKKLNAEVVEEKDGEVIIRFKTPDQAERALKEAEKLGAEVEL | 4.22
EVIELKIKFKTPEQREKLKEIAKKLNAEVVEEKDGEVIIRFKTPFQAERALKEAEKLGAEVEL | 4.44
EVIELKIKFKTPEQREKLKEIAKKMNAEVVEEKDGEVIIRFKTPEQAERALKEAEKLGAEVEL | 4.28
EVIELKIKFKTPEQREKLKEIAKKKNAEVVEEKDGEVIIRFKTPEQAERALKEAEKLGAEVEL | 3.82
EVIELKIKFKTPEQREKLKEIAKKLNAEVVEEKDIEVIIRFKTPEQAERALKEAEKLGAEVEL | 4.51
EVIELKIKFKTPEQREKLKEIAKKLNAEVVEEKDKEVIIRFKTPEQAERALKEAEKLGAEVEL | 4.24
EVIELKIKFKTPEQREKLKEIAKKLNAEVVEEKDGEVIIRFKTPEQAARALKEAEKLGAEVEL | 4.5

Variant | folding stability dG [kcal/mol]
EVIELKIKFKTPEQREKLKEIAKKLNAEVVEEKDGEVIIRFKTPEQADRALKEAEKLGAEVEL | 4.47
EVIELKIKFKTPEQREKLKEIAKKLNAEVVEEKDGEVIIRFKTPEQAERALKEAEKLGAEVEE | 4.22
EVIELKIKFKTPEQREKLKEIFKKLNAEVVEEKDGEVIIRFKTPEQAERALKEAEKLGAEVEL | 4.65
EVIELKISFKTPEQREKLKEIAKKLNAEVVEEKDGEVIIRFKTPEQAERALKEAEKLGAEVEL | 4.1
EVIELKIWFKTPEQREKLKEIAKKLNAEVVEEKDGEVIIRFKTPEQAERALKEAEKLGAEVEL | 4.83
EVIELKIKFKTPEQREKLKEIAKKLNAEVVEEKDGEVIIRFKTPEQAERALKEGEKLGAEVEL | 4.09
EVIELKIKFKTPEQREKLKEIAKKLNAEVVEEKDGEVIIRFKTPEQAERALKEPEKLGAEVEL | 2.86
EVIELKIKFKTPEQREKLKEIAKKLNAEVVEEKDGEVIIRFKTPEQAERALKENEKLGAEVEL | 3.65
EVIELKIKFKTPEQREKLKEIAKKLNAEVVEEKDGEVIIRFKRPEQAERALKEAEKLGAEVEL | 4.06
EVIELKIKFKTPEQREKLKEIAKKLNAEVVEEKDGEVIIRFKTPEQAERWLKEAEKLGAEVEL | 4.69
EVIELKIKFKTPEQREKLKEIAKKLNAEVVEEKDGEVIIRFKTPEQAERCLKEAEKLGAEVEL | 4.36
EVIELKIKFKTPEQREKLKEIAKKLNAEVVEEKDGEVIIRFKTPEQAERMLKEAEKLGAEVEL | 4.3
EVIELKIKFKTPEQREKLKSIAKKLNAEVVEEKDGEVIIRFKTPEQAERALKEAEKLGAEVEL | 4.41
EVIELKIKFKTPEQREKLKLIAKKLNAEVVEEKDGEVIIRFKTPEQAERALKEAEKLGAEVEL | 4.87
EVIELKIKFKTPEQREKLKKIAKKLNAEVVEEKDGEVIIRFKTPEQAERALKEAEKLGAEVEL | 4.39
EVIELKIKFKTPEQREKLKEIAKKLNAEVVEEKDGEVIIRFKTPEQAERALKEAEKLGKEVEL | 4.31
EVIELKIKFKTPEQREKLKEIAKKLNAEVVEEKDGETIIRFKTPEQAERALKEAEKLGAEVEL | 4.32
EVIELKIKFKTPEQREKLKEIAKKLNAEVVEEKDGEVIIRFKTPEQAECALKEAEKLGAEVEL | 4.42
EVIELKIKFKTPEQREKLKEIAKKLNAEVVEEKDGEVIIRFKTPEQAEDALKEAEKLGAEVEL | 4.56
